Values of other authors in US8623606B2, “Screening method for GPCR ligands” (Max-Planck-Gesellschaft zur Forderung der wissenschaften …, priority 2006, dated 2014).
pKd: −log10 of the molar value. Read-outs that look alike come from different tables or passages of the source.

Assays:
[1] = biological target: T1, CRF1 receptor (Homo sapiens, UniProt P34998)
T1 sequence (P34998 24-415): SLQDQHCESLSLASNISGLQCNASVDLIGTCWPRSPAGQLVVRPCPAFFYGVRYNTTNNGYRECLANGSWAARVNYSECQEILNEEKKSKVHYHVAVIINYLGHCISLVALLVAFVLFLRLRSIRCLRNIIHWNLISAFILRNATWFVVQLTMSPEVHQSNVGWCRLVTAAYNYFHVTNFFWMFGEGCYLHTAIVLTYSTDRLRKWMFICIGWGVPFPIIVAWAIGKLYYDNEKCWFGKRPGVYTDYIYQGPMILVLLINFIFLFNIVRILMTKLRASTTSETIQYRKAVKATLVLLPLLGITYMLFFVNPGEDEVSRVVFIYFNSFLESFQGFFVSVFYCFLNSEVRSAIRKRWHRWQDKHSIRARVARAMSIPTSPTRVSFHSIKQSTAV

[2] = biological target: T1, CRF1 receptor; remark: listed apart in the source
[3] = system: CRF R1; details: FIG. 2A legend

Ac-E*AEK*NRLXDII-CONH2 [12 amino acid analog of astressin]
binding to the CRF1 receptor (in words) ([1]; FIG. 2B legend): binds tightly
pKd ([1]; as reported in Yamada et al., read-out: binding constant to the N-terminal domain): 8.30
pKd ([1]; literature value, read-out: affinity of binding to the CRF1 receptor): 8.26
influence on the J-domain signaling [2]: devoid of any detectable influence

Ucn1-19: N-terminal activation domain from the CRF R1 agonist rat urocortin (DDPPLSIDLTFHLLRTLLEIE; listed as Homo sapiens)
CRF R1 activation potency (testosterone production) [3]: Neither of the isolated domains is active alone

consensus peptide derived from the C-terminus of CRF R1 antagonists: consensus peptide derived from the C-terminus of CRF R1 antagonists (NRKLLDEV; listed as Homo sapiens)
CRF R1 activation potency (testosterone production) [3]: Neither of the isolated domains is active alone
